Reference: patent US20170002081A1 (TRANSGENE S A, published 2017)

How the values were obtained:
[1] = target: T1, human CSF-1R, full length, on cells (human, UniProt P07333 20-972); assay: displacement of 1.5 nM ^125I-H27K15 (competitor) on EL4-CSF-1R cells
T1 construct: also called cell-surface CSF-1R; B4-800-5 cells

[2] = target: T2, Flt-3-Fc-6×his (R&D Systems cat. 368-ST/CF) (human, UniProt P36888 27-543, limits assumed); assay: ELISA, 300 ng coated receptor per well
T2 construct: extracellular domain; Bought; also called soluble Flt-3
Description: (§1) 13382) was also incubated with wells coated with receptor-human Fc fusion proteins Flt-3-Fc-, PDGFRβ-Fc, VEGFR2-Fc, VEGFR1-Fc, while PDGFRα- and SCFR-coated wells were incubated with respectively anti-PDGF-Rα (mouse IgG1, R&Dsystems cat. MAB322) and anti-SCF-R goat IgG (R&DSystems cat. AF332). […] Following revelation with tetramethylbenzidine (Sigma, cat. T8665) (0.1 mg/ml in 0.05 M sodium acetate, 0.05 M citric acid, H₂O₂ 1/7000), absorbance was measured at 450 nm and corrected by subtraction of absorbance at 540 nm using a spectrophotometer (Berthold, Tristar LB941).

[3] = target: T3, vascular endothelial growth factor receptor (VEGFR)2-Fc-6×his (R&D Systems cat. 357-KD/CF) (human, UniProt P35968 20-764, limits assumed); assay: ELISA, 300 ng coated receptor per well
T3 construct: extracellular domain; Bought; also called soluble VEGFR-2
Description: as §1

[4] = target: T4, PDGFRα ECD (R&D Systems cat. 322-PR/CF) (UniProt P16234 24-528, limits assumed); assay: ELISA, 300 ng coated receptor per well
T4 construct: extracellular domain; Bought; also called soluble PDGFRα
Description: as §1

[5] = target: T5, PDGFRβ-Fc-6×his (R&D Systems cat. 385-PR/CF) (human, UniProt P09619 33-532, limits assumed); assay: ELISA, 300 ng coated receptor per well
T5 construct: extracellular domain; Bought; also called soluble PDGFRβ
Description: as §1

[6] = target: T6, human SCFR ECD (R&D Systems cat. 332-SR/CF) (human, UniProt P10721 26-524); assay: ELISA, 300 ng coated receptor per well
T6 construct: extracellular domain; Bought; also called SCFR (c-kit)
Description: as §1

[7] = target: T7, VEGFR1-Fc-6×his (R&D Systems cat. 321-FL-050) (human, UniProt P17948 27-758, limits assumed); assay: ELISA, 300 ng coated receptor per well
T7 construct: extracellular domain; Bought; also called soluble VEGFR-1
Description: as §1

[8] = target: T1, human CSF-1R, full length, on cells; assay: displacement of 1.5 nM ^125I-H27K15 (competitor) on EL4-CSF-1R cells, Cheng-Prusoff
pTG18036 = target: T8, pTG18036; assay: ELISA: His-tagged construct captured from CHO supernatant on anti-His tag coated wells; biotinylated antibody; streptavidin-HRP
T8 construct: truncated mutant secreted by CHO cells; also called human D1 and D2 of CSF-1R, Histidine tag
T8 single secreted chain: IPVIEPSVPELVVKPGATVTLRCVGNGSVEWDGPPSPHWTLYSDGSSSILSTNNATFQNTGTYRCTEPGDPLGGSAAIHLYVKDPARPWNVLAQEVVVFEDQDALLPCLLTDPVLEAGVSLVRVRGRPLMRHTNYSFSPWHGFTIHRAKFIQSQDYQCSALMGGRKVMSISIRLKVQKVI
Description: (§2) In order to map the mAb binding sites on CSF-1R, truncated mutants of human CSF-1R and chimeras between human and murine D1-D3 CSF-1R fused to Histidine tags were constructed (see FIGS. 19 and 20 for details). These constructs were expressed as secreted proteins using CHO cells. Expression of constructs was checked by immunoblot analysis using an anti-His tag antibody for detection. All constructs were captured on ELISA plate by incubating CHO culture supernatant into wells coated with an Anti-His tag antibody. Antibodies were biotinylated using Biotin-NHS (Sigma ref B3295-10 MG). Biotinylated antibodies were added to each well and binding was detected with streptavidin-HRP.

[9] = target: T9, construct pTG18000 (human and murine D1 subdomains combined, Histidine tag) (Homo sapiens (Human), UniProt P07333 21-298); assay: as above
T9 chain: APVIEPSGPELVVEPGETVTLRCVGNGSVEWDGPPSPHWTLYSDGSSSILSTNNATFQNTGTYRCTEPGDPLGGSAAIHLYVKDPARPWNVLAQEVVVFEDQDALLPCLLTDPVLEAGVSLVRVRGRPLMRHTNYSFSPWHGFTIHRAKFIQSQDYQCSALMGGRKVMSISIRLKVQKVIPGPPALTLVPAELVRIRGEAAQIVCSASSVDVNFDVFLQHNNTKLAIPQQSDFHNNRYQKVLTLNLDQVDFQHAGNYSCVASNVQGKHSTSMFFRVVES
Description: as §2

pTG17983 = target: T10, pTG17983; assay: as above
T10 construct: secreted by CHO cells; also called human D1-D2-D3 of CSF-1R, Histidine tag
T10 single secreted chain: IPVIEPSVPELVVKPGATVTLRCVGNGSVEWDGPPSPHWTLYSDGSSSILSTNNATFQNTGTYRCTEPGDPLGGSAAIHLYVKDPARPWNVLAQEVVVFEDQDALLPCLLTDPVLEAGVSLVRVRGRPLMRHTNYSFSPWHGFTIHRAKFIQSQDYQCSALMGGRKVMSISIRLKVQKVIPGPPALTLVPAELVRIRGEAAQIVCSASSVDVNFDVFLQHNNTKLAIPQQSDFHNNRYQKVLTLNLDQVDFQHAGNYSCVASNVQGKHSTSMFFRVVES
Description: as §2

EGFR:Fc = target: T11, EGFR:Fc (human, UniProt P00533 25-645); assay: Western blot, native conditions, 100 ng soluble receptor
T11 construct: also called soluble form of the EGFR fused to human IgG1 Fc (R&D Systems); Soluble EGFR; not shown: human IgG1 Fc
Source text: A soluble form of the EGFR fused to human IgG₁ Fc (R&D Systems) was used as a negative control.

[10] = target: T12, CSF-1R20-512-Fc (R&D Systems cat. 329-MR) (human, UniProt P07333 20-512); assay: ELISA: coated human CSF1 1-444 or PBS; Fc-D1-D5 human CSF-1R 0.125 µg/mL; anti-human IgG-Fc-HRP
T12 construct: Bought; also called CSF-1R1-512:Fc; soluble human CSF-1R; not shown: Fc region of a human IgG1

T5 sequence (P09619 33-532 limits assumed): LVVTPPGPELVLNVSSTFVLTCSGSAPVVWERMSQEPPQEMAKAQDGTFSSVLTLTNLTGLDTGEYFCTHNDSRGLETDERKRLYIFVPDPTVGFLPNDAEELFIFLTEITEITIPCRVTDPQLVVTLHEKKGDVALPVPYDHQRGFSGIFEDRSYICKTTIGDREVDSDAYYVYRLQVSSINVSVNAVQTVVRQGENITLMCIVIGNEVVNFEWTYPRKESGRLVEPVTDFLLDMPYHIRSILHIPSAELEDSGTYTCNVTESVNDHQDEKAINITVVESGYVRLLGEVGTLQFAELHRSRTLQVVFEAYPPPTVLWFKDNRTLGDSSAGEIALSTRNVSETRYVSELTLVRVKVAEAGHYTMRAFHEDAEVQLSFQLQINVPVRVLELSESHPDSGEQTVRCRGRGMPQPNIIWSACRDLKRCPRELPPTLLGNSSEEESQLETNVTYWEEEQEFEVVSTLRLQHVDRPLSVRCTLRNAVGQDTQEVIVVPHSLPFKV
T4 sequence (P16234 24-528 limits assumed): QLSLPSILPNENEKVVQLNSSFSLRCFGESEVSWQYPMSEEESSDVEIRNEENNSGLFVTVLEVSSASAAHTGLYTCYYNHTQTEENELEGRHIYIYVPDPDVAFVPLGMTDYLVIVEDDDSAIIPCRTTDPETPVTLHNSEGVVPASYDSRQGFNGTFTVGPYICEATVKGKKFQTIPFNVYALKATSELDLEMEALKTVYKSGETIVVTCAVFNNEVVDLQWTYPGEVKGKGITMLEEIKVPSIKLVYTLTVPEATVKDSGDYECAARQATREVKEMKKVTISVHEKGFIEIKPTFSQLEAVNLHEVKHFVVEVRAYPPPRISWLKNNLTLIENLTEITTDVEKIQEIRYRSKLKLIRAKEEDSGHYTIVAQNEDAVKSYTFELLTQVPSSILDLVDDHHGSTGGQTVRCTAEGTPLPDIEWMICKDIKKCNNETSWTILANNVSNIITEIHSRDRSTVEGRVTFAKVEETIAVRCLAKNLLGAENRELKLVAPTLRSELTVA
T7 sequence (P17948 27-758 limits assumed): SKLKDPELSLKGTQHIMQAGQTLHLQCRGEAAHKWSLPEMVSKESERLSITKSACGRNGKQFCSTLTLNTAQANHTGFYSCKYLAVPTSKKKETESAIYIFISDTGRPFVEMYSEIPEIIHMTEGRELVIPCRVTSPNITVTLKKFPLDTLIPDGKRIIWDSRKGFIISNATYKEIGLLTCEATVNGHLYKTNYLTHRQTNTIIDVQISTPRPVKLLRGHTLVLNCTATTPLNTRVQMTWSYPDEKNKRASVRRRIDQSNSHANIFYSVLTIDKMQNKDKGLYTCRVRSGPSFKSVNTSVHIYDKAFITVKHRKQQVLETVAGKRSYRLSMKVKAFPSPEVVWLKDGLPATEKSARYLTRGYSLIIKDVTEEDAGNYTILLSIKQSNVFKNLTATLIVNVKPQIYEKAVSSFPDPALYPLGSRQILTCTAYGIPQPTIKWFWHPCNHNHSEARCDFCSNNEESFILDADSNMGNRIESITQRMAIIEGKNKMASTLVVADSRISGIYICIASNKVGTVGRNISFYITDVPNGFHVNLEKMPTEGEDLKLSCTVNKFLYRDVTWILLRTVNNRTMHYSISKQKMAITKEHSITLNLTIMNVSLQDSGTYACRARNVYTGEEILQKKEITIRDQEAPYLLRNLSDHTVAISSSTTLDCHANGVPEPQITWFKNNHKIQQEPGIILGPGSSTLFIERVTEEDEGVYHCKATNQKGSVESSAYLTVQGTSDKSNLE
T3 sequence (P35968 20-764 limits assumed): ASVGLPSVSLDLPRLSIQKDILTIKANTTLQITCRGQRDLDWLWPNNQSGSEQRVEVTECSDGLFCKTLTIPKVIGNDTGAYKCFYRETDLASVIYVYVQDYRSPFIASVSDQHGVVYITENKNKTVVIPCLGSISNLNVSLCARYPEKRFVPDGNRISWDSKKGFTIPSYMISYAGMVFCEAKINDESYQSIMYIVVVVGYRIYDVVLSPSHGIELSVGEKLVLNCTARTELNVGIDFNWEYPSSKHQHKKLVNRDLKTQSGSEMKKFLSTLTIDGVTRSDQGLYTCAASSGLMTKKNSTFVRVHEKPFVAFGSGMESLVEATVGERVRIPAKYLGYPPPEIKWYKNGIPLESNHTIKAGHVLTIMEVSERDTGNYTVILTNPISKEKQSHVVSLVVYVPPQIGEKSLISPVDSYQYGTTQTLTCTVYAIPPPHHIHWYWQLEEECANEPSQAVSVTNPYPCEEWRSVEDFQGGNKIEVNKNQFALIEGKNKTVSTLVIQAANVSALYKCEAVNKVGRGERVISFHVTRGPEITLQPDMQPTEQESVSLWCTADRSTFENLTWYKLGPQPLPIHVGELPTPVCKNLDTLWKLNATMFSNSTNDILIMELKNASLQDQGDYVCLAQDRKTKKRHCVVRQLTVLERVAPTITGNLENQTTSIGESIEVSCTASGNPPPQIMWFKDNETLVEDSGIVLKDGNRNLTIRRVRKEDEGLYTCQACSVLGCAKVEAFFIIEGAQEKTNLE

B1: H19K12 (antibody, V domains shown)
VH: EVQLVESGGGLVQPGGSLKLSCAASGFTFSDAWMDWVRQSPEMGLEWVAEIRSKANNHATFYAESVKGRFTISRDDSKSSVYLQMNSLRAEDTGIYYCTRVKVGFDNWGQGTTLTVSS
VL: DIQMTQSPSSLSASVGDRVTITCRASENIYSNLAWYQQKDGKSPQLLVHAATNLADGVPSRFSGSGSGTQYSLTISSLQPEDFGSYYCQHFWGTPRTFGGGTKLEIKR
notes: Humanized human IgG1/kappa; also called hCXIIG6 variant H19K12
IC50 [1]: 1.28 nM | binding result [2]: no binding (tested: 500 ng/ml) | binding result [3]: no binding (tested: 500 ng/ml) | binding result [4]: no binding (tested: 500 ng/ml) | binding result [5]: no binding (tested: 500 ng/ml) | binding result [6]: no binding (tested: 500 ng/ml) | binding result [7]: no binding (tested: 500 ng/ml) | Ki [8]: 0.754 nM

B2: Chimeric CXIIG6 IgG1 (antibody)
heavy: not shown
light: DIQMTQSPASLSVSVGETVTITCRASENIYSNLAWYQQKQGKSPQLLVHAATNLADGVPSRFSGSGSGTQYSLKINSLQSEDFGSYYCQHFWGTPRTFGGGTKLEIKRTVAAPSVFIFPPSDEQLKSGTASVVCLLNNFYPREAKVQWKVDNALQSGNSQESVTEQDSKDSTYSLSSTLTLSKADYEKHKVYACEVTHQGLSSPVTKSFNRGEC
IC50 [1]: 1.48 nM | binding result (pTG18036): binds | binding result [9]: no binding | binding result (pTG17983): binds | Ki [8]: 0.874 nM

B3: mAb CXIIG6 (antibody, mouse IgG2a, kappa)
heavy: EVKLEESGGGLVQPGGSMKLSCAASGFTFSDAWMDWVRQSPEMGLEWVAEIRSKANNHATFYAESVKGRFTISRDDSKSSVYLQMNSLRPEDTGIYYCTRVKVGFDNWGQGTTLTVSSAKTTAPSVYPLAPVCGDTTGSSVTLGCLVKGYFPEPVTLTWNSGSLSSGVHTFPAVLQSDLYTLSSSVTVTSSTWPSQSITCNVAHPASSTKVDKKIEPRGPTIKPCPPCKCPAPNLLGGPSVFIFPPKIKDVLMISLSPIVTCVVVDVSEDDPDVQISWFVNNVEVHTAQTQTHREDYNSTLRVVSALPIQHQDWMSGKEFKCKVNNKDLPAPIERTISKPKGSVRAPQVYVLPPPEEEMTKKQVTLTCMVTDFMPEDIYVEWTNNGKTELNYKNTEPVLDSDGSYFMYSKLRVEKKNWVERNSYSCSVVHEGLHNHHTTKSFSRTPGK
light: DIQMTQSPASLSVSVGETVTITCRASENIYSNLAWYQQKQGKSPQLLVHAATNLADGVPSRFSGSGSGTQYSLKINSLQSEDFGSYYCQHFWGTPRTFGGGTKLEIKRADAAPTVSIFPPSSEQLTSGGASVVCFLNNFYPKDINVKWKIDGSERQNGVLNSWTDQDSKDSTYSMSSTLTLTKDEYERHNSYTCEATHKTSTSPIVKSFNRNEC
notes: Mouse IgG2a; Used as hybridoma supernatant or as purified recombinant antibody; also called CXIIG6 hybridoma supernatant; CXIIG6 SN
binding result (EGFR:Fc): no binding

B4: human CSF1 1-444 (Geneart) (ligand)
chain: EEVSEYCSHMIGSGHLQSLQRLIDSQMETSCQITFEFVDQEQLKDPVCYLKKAFLLVQDIMEDTMRFRDNTPNAIAIVQLQELSLRLKSCFTKDYEEHDKACVRTFYETPLQLLEKVKNVFNETKNLLDKDWNIFSKNCNNSFAECSSQDVVTKPDCNCLYPKAIPSSDPASVSPHQPLAPSMAPVAGLTWEDSEGTEGSSLLPGEQPLHTVDPGSAKQAPPRSTCQSFEPPETPVVKDSTIGGSPQPRPSVGAFNPGMEDILDSAMGTNWVPEEASGEASEIPVPQGTELSPSRPGGGSMQTEPARPSNFLSASSPLPASAKGQQPADVTGTALPRVGPVRPTGQDWNHTPQKTDHPSALLRDPPEPGSPRISSLRPQGLSNPSTLSAQPQLSRSHSSGSVLPLGELEGRR
modifications: biotinylated with Biotin-NHS in the assay of
notes: also called biotinylated CSF-1
binding result [10]: binds
